Measurements: PMC8882007, “Syndapin-2 mediated transcytosis of amyloid-β across the blood–brain barrier” (Brain Communications, 2022)

How the values were obtained:
Assay in all cases: proximity ligation; Duolink PLA between two endogenous proteins in polarized bEnd3 monolayers, fixed in 4% PFA and permeabilized with 0.1% Triton X-100; two primary antibodies overnight at 4°C; PLA signal normalized by the number of nuclei; also in shRNA control (scramble) and syndapin-2 knockdown cells, and after FAM-Aβ (1–40) or Aβ monomers, oligomers or fibrils for 15 min
[1] = molecular target: Rab11 (mouse (endogenous in bEnd3)) (UniProt P62492)
Chain of Rab11 (mouse (endogenous in bEnd3)) (P62492 whole entry): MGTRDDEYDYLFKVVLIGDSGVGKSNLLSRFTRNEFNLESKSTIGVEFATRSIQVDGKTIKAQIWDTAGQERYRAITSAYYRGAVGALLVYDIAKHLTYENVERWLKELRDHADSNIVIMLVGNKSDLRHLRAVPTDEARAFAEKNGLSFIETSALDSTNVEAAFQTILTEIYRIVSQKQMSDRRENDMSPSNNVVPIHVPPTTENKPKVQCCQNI

[2] = molecular target: Rab5 (mouse (endogenous in bEnd3)) (UniProt Q9CQD1)
Chain of Rab5 (mouse (endogenous in bEnd3)) (Q9CQD1 whole entry): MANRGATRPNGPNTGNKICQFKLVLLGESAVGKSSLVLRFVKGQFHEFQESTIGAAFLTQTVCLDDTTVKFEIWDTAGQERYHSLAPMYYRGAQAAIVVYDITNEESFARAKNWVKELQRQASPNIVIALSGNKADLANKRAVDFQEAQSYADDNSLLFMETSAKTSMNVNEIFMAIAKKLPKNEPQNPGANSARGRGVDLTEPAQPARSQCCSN

[3] = molecular target: Rab7 (mouse (endogenous in bEnd3)) (UniProt P51150)
Chain of Rab7 (mouse (endogenous in bEnd3)) (P51150 whole entry): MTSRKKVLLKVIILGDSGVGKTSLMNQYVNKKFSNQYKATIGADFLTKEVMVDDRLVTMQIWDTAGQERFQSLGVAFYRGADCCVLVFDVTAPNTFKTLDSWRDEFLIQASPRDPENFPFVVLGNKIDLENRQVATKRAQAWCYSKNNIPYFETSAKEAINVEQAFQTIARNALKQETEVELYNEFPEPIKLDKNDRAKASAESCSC

Chain of syndapin-2 (Q9WVE8 whole entry): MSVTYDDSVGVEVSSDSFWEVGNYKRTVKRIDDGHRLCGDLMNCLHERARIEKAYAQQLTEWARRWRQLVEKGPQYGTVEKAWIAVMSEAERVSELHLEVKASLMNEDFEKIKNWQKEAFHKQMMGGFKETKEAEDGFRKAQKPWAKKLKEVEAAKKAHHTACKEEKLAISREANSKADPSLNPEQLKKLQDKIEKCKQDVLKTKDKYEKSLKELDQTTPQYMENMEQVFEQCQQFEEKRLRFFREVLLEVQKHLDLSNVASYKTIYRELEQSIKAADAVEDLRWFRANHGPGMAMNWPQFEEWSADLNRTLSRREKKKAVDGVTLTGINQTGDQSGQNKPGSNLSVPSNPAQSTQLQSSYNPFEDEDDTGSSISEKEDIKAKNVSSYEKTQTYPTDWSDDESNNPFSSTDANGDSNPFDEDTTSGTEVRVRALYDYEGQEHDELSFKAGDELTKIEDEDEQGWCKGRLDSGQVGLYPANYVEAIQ

PLA dots per cell (dots per cell) [1]: < 20
PLA dots per cell (dots per cell) [2]: < 20
PLA dots per cell (dots per cell) [3]: < 20
Substance: syndapin-2 (from UniProt Q9WVE8 1-486) (natural protein)
